In assay [1] the target is CD24Fc (HEK293 cell derived) (UniProt P25063). Briefly: direct ELISA, antigen coated at 10 µg/ml, mAb titrated. (In an ELISA, binding on a coated surface is turned into a signal by an enzyme label.)
The next assay concerns the target T1, HMGB1-His tag protein (human, UniProt P09429 1-215, limits assumed).
T1 construct: Bought, HEK293 cell derived; also called human HMGB1; HMGB1-His protein; not shown: His tag
T1 sequence (looked up): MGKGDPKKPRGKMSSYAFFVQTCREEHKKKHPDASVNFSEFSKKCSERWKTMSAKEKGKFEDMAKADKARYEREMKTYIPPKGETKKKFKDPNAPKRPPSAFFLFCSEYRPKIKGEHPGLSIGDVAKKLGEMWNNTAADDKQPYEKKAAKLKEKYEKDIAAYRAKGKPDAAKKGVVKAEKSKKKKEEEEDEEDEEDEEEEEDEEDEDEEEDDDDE
Briefly: ELISA, HMGB1-His coated at 0.1 µg/mL, fusion protein titrated. The procedure: 96-well plates were coated (100 μL per well) with 0.1 μg/mL HEK293 cell derived HMGB1-His tag protein (AcroBiosystems, HM1-H5220) at 4° C. overnight. After blocking with SuperBlock (Thermo, 37515) at room temperature for 1 hour, 100 μL of 2-fold serial dilutions of AI-071 or CD24Fc (all starting at 1.5 mg/mL, dilution buffer: PBST-1% BSA solution containing 1 mM MgCl2 and 1 mM CaCl2) were added. The bound AI-071 or CD24Fc protein was then detected by adding HRP-labeled goat anti-human IgG-Fc antibody (1:1000, Invitrogen, A18829), followed by the addition of tetramethylbenzidin (TMB) substrates. The EC50 values of the binding are shown in the underneath table. […] Recombinant HMGB1-His protein sample was incubated with AI-071, human IgG-Fc, or none for 5 min, the mixture was then incubated with protein A-conjugated beads to capture (or pull-down) the bound proteins. The captured proteins were then separated in a SDS-PAGE gel and visualized by Coomassie Brilliant Blue dye staining. […] As indicated on the top of each gel, lane 1 represents the sample containing HMGB1 only, lane 2 represents the sample containing HMGB1 and human IgG-Fc, and lane 3 represents the sample containing HMGB1 and AI-071, lane M is the protein molecule weight marker sample. […]

Assay [2] concerns the target T2, Siglec10-mIgG2aFc fusion protein (human, UniProt Q96LC7 17-546, limits assumed).
T2 construct: Bought, HEK293 cell derived; also called human Siglec-10; AcroBiosystems SIO-H525b; not shown: mouse IgG2a Fc of the bought protein
T2 sequence (looked up): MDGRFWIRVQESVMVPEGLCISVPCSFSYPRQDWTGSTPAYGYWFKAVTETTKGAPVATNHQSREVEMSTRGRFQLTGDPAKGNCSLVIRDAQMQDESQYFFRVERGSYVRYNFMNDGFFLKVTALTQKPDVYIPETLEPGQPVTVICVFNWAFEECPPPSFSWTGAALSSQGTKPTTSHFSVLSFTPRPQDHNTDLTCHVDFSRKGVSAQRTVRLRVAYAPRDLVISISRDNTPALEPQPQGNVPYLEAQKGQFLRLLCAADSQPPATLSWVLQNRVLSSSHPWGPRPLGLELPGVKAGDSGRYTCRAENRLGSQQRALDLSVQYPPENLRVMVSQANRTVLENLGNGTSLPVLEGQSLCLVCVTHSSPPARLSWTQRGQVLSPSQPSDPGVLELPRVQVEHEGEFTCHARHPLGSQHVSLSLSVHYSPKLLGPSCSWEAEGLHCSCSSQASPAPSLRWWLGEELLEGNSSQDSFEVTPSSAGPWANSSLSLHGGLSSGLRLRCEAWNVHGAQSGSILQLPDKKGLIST
As to the kind of experiment: ELISA, Siglec10-mIgG2aFc coated at 0.2 µg/mL, fusion protein titrated. The method, then:
96-well plates were coated (100 μL per well) with 0.2 μg/mL of HEK293 cell derived Siglec10-mlgG2aFc fusion protein (AcroBiosystems, SIO-H525b) at 4° C. overnight. After blocking with SuperBlock (Thermo, 37515) at room temperature for 1 hour, 100 μL of 2-fold serial dilutions of AI-071 or CD24Fc protein (all starting at 1.5 mg/mL) were added. The bound AI-071 or CD24Fc protein was then detected by HRP-labeled goat anti-human IgG-Fc antibody (1:5000, Invitrogen, A18829) followed by the addition of tetramethylbenzidine (TMB) substrates. The EC50 values of the binding are shown in the underneath table.
To probe the interaction of AI-071 protein with the members of Siglec family such as Siglec10, an ELSIA assay was developed. In-brief, 96-well plates were coated (100 μL per well) with 0.2 μg/mL of HEK293 cell derived Siglec10-mlgG2aFc fusion protein (AcroBiosystems, SIO-H525b) at 4° C. overnight. After washing and blocking with SuperBlock (Thermo, 37515) at room temperature for 1 hour, 100 μL of 2-fold serial dilutions of either AI-71 or CD24Fc (all starting at 1.5 mg/ml) were added. The bound AI-071 or CD24Fc protein was then detected by HRP-labeled goat anti-human IgG-Fc antibody (1:5000, Invitrogen, A18829) followed by the addition of Tetramethylbenzidin (TMB) substrates. […] The OD values at a wavelength of 450 nm (OD 450 nm) in each well were then measured.

As usually defined, the EC50 is the concentration at which the effect is half-maximal. Lower therefore signals higher potency in that assay. As to SN3 mouse anti-CD24 mAb (antibody), the EC50 in assay [1] was determined as 0.00468 µM. SETTTGTSSNSSQSTSNSGLAPNPTNATTKAAG (Fc fusion, UniProt P25063 27-59, looked up, not shown: Fc part) [CD24Fc (producing cell not stated)]: the EC50 is 51 µM in the assay with HMGB1-His tag protein and 2.85 µM in assay [2].

The record behind these values is patent US20240400644A1 (ACROIMMUNE GUANGZHOU BIOTECH, published 2024).
